B1: MX PEP: novel recombinant prolyl endopeptidase from Myxococcus xanthus (Genbank AF127082, SEQ ID NO:47) (protein, listed as Myxococcus xanthus)
chain: MSYPATRAEQVVDTLHGVQVADPYRWLEDEKAPEVQTWMTAQNAHAREALAKFPGREALAARFKELFYTDSVSTPSRRNGRFFYVRTHKDKEKAILYWRQGESGQEKVLLDPNGWSKDGTVSLGTWAVSWDGKKVAFAQKPNAADEAVLHVIDVDSGEWSKVDVIEGGKYATPKWTPDSKGFYYEWLPTDPSIKVDERPGYTTIRYHTLGTEPSKDTVVHERTGDPTTFLQSDLSRDGKYLFVYILRGWSENDVYWKRPGEKDFRLLVKGVGAKYEVHAWKDRFYVLTDEGAPRQRVFEVDPAKPARASWKEIVPEDSSASLLSVSIVGGHLSLEYLKDATSEVRVATLKGKPVRTVQLPGVGAASNLMGLEDLDDAYYVFTSFTTPRQIYKTSVSTGKSELWAKVDVPMNPEQYQVEQVFYASKDGTKVPMFVVHRKDLKRDGNAPTLLYGYGGFNVNMEANFRSSILPWLDAGGVYAVANLRGGGEYGKAWHDAGRLDKKQNVFDDFHAAAEYLVQQKYTQPKRLAIYGGSNGGLLVGAAMTQRPELYGAVVCAVPLLDMVRYHLFGSGRTWIPEYGTAEKPEDFKTLHAYSPYHHVRPDVRYPALLMMAADHDDRVDPMHARKFVAAVQNSPGNPATALLRIEANAGHGGADQVAKAIESSVDLYSFLFQVLDVQGAQGGVAAQGR
B2: FM PEP: recombinant prolyl endopeptidase from Flavobacterium meningosepticum (Genbank D10980) (protein)
chain: QNSNVLKYPETKKVSHTDTYFGTQVSDPYRWLEDDRAEDTKAWVQQEVKFTQDYLAQIPFRDQLKKQLMDIWNYEKISAPFKKGKYTYFSKNDGLQAQSVLYRKDAAGKTEVFLDPNKFSEKGTTSLASVSFNKKGTLVAYSISEGGSDWNKIIILDAETKKQLDETLLDVKFSGISWLGDEGFFYSSYDKPKEGSVLSGMTDKHKVYFHKLGTKQSQDELIIGGDKFPRRYIGAYVTDDQRYLVVSAANATNGNELYIKDLKNKTDFIPIITGFDSNVNVADTDGDTLYLFTDKDAPNKRLVKTTIQNPKAETWKDVIAETSEPLEINTGGGYFFATYMKDAIDQVKQYDKNGKLVRAIKLPGSGNASGFGGEKTEKDLYYSFTNYITPPTIFKYNVTTGNSEVYQKPKVKFNPENYVSEQVFYTSSDGTKIPMMISYKKGLKKDGKNPTILYSYGGFNISLQPAFSVVNAIWMENGGIYAVPNIRGGGEYGKKWHDAGTKMQKKNVFNDFIAAGEYLQKNGYTSKEYMALSGRSNGGLLVGATMTMRPDLAKVAFPGVGVLDMLRYNKFTAGAGWAYDYGTAEDSKEMFEYLKSYSPVHNVKAGTCYPSTMVITSDHDDRVVPAHSFKFGSELQAKQSCKNPILIRIETNAGHGAGRSTEQVVAENADLLSFALYEMGIKSLK

Key:
[1] = Kinetic analysis with reference substrate Succinyl-Ala-Pro-pNA; assay type: biochemical; conditions: Succinyl-Ala-Pro-p-nitroanilide hydrolysis
Procedure: Activity Assays. Post-proline cleavage activity was measured using Z-Gly-Pro-p-nitroanilide and Succinyl-Ala-Pro-p-nitroanilide (Bachem, CA). Z-Gly-Pro-pNA was dissolved in a PBS:water:dioxane (8:1.2:0.8) assay mixture. The concentration of Z-Gly-Pro-pNA was varied from 100-600 μM. Although the substrate Z-Gly-Pro-pNA was effective in detecting enzyme activity, its insolubility at higher concentrations precluded kinetic measurements under substrate-saturated conditions. In contrast, Succinyl-Ala-Pro-pNA, had the advantage of high water solubility at all pH values tested, and was therefore a preferred substrate for kinetic studies. […] Reaction mixtures ([…] consisted of 30 μl of 10× pH buffer, final concentration of 0.01 μM enzyme, and Suc-Ala-Pro-pNA to final concentrations between 100 μM to 4 mM.
Kinetic Analysis with Reference Substrates. The activity of each PEP was initially evaluated using the standard chromogenic substrate succinyl-Ala-Pro-pNA. Release of the p-nitroaniline was detected at 410 nm, and kinetic data was fitted to the Michaelis-Menten relationship. Succinyl-Ala-Pro-pNA was selected as a reference substrate instead of the more commonly used Z-Gly-Pro-pNA due to the low solubility of the latter substrate, which necessitated use of co-solvents. The calculated kcat and KM values of FM, MX and SC PEPs for succinyl-Ala-Pro-pNA are tabulated (Table 3). […] The higher specificity of MX can be attributed mainly to its higher affinity for the substrate, as reflected in the KM.

[2] = pH stability (activity retained after acid exposure); assay type: in vitro ADME; conditions: after 10 min of incubation at pH values between 1.6 and 3.9
Procedure: pH Stability. The ability to retain enzyme activity after exposure to acidic environments was determined. […] The recovered enzyme activity was measured spectrophotometrically and compared with non-acid treated controls under identical conditions. PEP Stability. Although orally administered therapeutic proteins can be formulated to protect them from the acidic and proteolytic environment of the stomach, intrinsic acid stability of a PEP is likely to be a desirable characteristic in its use as a therapeutic agent for Celiac Sprue. […] Thus, although all PEPs appear to be moderately acid-stable, the MX PEP is most versatile. Since therapeutic efficacy would require a PEP to act upon gluten in conjunction with pancreatic proteases that are secreted into the duodenum, the resistance of FM PEP and MX PEP toward both gastric and pancreatic enzymes was evaluated. For this we pre-incubated the enzymes with physiological quantities of either pepsin (at pH 2) or a cocktail comprising of trypsin, chymotrypsin, elastase and carboxypeptidase A (at pH 6.5).

[3] = tested on: LQLQPFPQPQLPYPQPQLPYPQPQLPYPQPQPF (33-mer); assay: Hydrolysis of the 33-mer gliadin peptide by PEPs, HPLC; assay type: biochemical, wheat; conditions: for rate of substrate (33-mer+32-mer) disappearance: 10 μM substrate; for initial hydrolytic products of the 33-mer: LC/MS/MS
Procedure: FIGS. 11A-11C. Hydrolysis of (SEQ ID NO:12) […] by FM PEP, MX PEP and SC PEP. (A) Time dependence of hydrolysis in the presence of 10 μM substrate and 0.1 μM enzyme. […] (B) Initial cleavage fragments observed due to hydrolysis by FM PEP (t=1 min) and MX PEP (t=5 min). (C) Summary of initial cleavage fragments from FM PEP and MX PEP catalyzed hydrolysis of the 33-mer substrate.
Substrate Specificity. In addition to the reference substrates above, enzyme specificity was also evaluated using two immunogenic peptides derived from the sequence of γ-gliadin proteins in gluten. Both peptides were synthesized using solid-phase peptide synthesis. The peptide (SEQ ID NO:4) […] contains the immunodominant γII-epitope, and is resistant to proteolysis by pepsin or any pancreatic enzyme. PEP specificity toward this substrate was assessed in a competitive assay in which 100 μM (SEQ ID NO:4) […] and 100 μM Suc-Ala-Pro-pNA were mixed and reacted with 0.02 μM PEP at 25° C. The initial velocity of Suc-Ala-Pro-pNA cleavage was measured spectrophotometrically, whereas the initial velocity of (SEQ ID NO:4) […] hydrolysis was determined via HPLC. The apparent specificity, kcat/KM, for the hydrolysis of (SEQ ID NO:4) […] could be determined based on the known kcat/KM of the enzyme for Suc-Ala-Pro-pNA and the observed reaction rates of the two substrates. […] Proteolysis reactions were performed at 37° C. in PBS buffer with 5-100 μM peptide and 0.1 μM PEP for time periods of 1 min-4 hrs.
The decrease in substrate concentration as well as concomitant intermediate and product build-up were monitored with HPLC analysis. RP-HPLC was performed on a system consisting of Beckman or Rainin Dynamax SD-200, a Varian 340 UV detector set at 215 nm and 280 nm. Solvent A was H2O with 0.1% TFA and solvent B was acetonitrile with 0.1% TFA; gradient used: 0-5% B in 0-15 min, 5-30% B in 15-30′, 30-100% B in 30-35 min, 100% B for 5′; flow 1 ml/min; separation was performed on a 4.6×150 mm reverse phase C-18 column (Vydac, Hesperia, Calif., USA). Samples were centrifuged for 10 min at 13,400 g, prior to injection of 10-100 μl. […] Thus, multiple peptides accumulate during the course of the reaction, some of which are secondary PEP substrates in themselves.
Chain Length Tolerance and Selectivity. […] Thus, the SC PEP appears to have a severe chain length restriction for long peptide substrates.

Row | Molecule | Kcat [1] | Km [1] | original activity retained [2] | rate of substrate (33-mer+32-mer) disappearance ([3]; 0.1 μM enzyme) | initial hydrolytic products of the 33-mer [3] | time to hydrolyze 10 μM of the 33-mer ([3]; 0.1 μM enzyme) | faster action on the 33-mer than the MX PEP ([3]; based on initial rates) | faster action on the 33-mer than the SC PEP ([3]; based on initial rates)
1 | B1 | 51 s⁻¹ | 350 µM | 70-90% | 0.43 µM/min | fragments mostly of 4-5 residues | – | – | –
2 | B2 | 33 s⁻¹ | 910 µM | 50-70% | 2.3 µM/min | yielded longer intermediates | 2 to 3 min | 5 fold | > 20 fold

Reference: patent US8796201B2 (The Board of Trustees of the Leland Stanford Junior …, priority 2002, dated 2014)
